From patent US9688764B2, “Methods of treating breast cancer by administering anti-human prolactin receptor (PRLR) antibodies” (REGENERON PHARMACEUTICALS, INC., priority 2013, dated 2017)

T1: HEK293/hPRLR (Homo sapiens, UniProt P16471)
T1 construct: HA; expressed in transfected cells; host or cells: HEK293
T1 sequence (P16471 25-622): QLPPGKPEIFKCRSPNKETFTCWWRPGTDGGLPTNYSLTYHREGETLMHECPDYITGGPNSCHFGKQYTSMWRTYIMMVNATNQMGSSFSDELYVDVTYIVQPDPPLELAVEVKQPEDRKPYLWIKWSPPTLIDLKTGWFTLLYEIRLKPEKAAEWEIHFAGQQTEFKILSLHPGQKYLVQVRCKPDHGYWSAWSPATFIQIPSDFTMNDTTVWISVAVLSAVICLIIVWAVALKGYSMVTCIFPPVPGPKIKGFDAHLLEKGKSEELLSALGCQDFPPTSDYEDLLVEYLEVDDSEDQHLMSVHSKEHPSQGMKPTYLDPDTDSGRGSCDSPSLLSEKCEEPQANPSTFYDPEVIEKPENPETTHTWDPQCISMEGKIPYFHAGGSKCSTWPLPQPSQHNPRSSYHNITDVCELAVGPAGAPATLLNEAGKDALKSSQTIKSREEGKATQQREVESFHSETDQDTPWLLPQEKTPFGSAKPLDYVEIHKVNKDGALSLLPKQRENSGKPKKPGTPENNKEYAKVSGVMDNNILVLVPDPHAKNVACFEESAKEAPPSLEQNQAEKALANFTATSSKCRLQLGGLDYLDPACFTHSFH

T2: HEK293/mPRLR (Mus musculus, UniProt Q08501)
T2 construct: HA; expressed in transfected cells; host or cells: HEK293
T2 sequence (Q08501 20-608): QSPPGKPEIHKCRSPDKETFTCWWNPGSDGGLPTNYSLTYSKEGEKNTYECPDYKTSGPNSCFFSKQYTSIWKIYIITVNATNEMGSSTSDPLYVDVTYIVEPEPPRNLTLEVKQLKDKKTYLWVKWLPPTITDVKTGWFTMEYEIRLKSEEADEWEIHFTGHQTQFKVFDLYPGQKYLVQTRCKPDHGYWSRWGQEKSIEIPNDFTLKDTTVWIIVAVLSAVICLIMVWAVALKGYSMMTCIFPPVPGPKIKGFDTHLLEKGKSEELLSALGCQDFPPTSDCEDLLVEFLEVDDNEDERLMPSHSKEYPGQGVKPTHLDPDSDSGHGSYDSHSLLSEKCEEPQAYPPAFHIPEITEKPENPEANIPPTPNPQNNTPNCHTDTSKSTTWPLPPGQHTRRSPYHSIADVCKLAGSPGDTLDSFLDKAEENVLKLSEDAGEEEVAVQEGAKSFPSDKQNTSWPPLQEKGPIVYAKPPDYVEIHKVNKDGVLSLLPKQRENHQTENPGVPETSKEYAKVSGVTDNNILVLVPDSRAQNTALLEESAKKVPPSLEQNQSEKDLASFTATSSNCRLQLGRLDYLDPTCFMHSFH

T3: T47D (native PRLR expressing cell line) (Homo sapiens, UniProt P16471)
T3 construct: a native PRLR expressing cell line (T47D); endogenous in cells; host or cells: T47D
T3 sequence (P16471 25-622): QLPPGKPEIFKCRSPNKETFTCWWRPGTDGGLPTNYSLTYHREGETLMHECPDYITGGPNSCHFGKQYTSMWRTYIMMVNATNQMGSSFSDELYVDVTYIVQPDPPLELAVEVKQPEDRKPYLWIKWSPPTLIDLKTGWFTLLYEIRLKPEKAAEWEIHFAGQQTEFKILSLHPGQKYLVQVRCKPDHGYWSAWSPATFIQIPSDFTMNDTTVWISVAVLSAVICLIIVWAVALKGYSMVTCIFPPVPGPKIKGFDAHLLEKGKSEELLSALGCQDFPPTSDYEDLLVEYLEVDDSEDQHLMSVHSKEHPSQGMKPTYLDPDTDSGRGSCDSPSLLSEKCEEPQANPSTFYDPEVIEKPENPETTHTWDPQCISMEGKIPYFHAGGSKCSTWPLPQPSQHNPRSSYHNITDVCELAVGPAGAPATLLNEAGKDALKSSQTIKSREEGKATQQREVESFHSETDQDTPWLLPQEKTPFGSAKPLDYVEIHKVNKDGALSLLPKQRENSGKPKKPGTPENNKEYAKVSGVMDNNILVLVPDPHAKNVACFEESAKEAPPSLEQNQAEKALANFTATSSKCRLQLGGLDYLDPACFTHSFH


Columns and labels:
[1] = biological target: T4, hPRLR.mmh (soluble monomeric human PRLR) (Homo sapiens, UniProt P16471); assay: Surface plasmon resonance (Biacore T200), mAb-capture format; format: binding; settings: antibody-capture format, analyte hPRLR.mmh
T4 construct: soluble monomeric (hPRLR.mmh); mmh (myc-myc-hexahistidine)
T4 sequence (P16471 with tags, fused parts or gaps): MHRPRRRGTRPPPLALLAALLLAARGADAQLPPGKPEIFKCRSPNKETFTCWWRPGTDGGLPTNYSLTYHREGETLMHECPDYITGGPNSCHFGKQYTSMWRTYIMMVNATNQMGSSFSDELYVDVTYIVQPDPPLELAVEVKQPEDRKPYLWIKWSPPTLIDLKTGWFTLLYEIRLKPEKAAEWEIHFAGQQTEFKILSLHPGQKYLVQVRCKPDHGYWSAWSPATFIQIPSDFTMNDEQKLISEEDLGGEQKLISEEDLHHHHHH
Outline: (§1)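 First, IgG1-format antibodies were captured via anti-human Fc on the chip. Next, monomeric hPRLR.mmh or mfPRLR.mmh, or dimeric hPRLR.mFc, was injected. Finally, association and dissociation rates were fitted to 1:1 binding.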

[2] = biological target: mfPRLR.mmh (monomeric macaca fascicularis PRLR); assay: as above; format: binding; settings: antibody-capture format, analyte mfPRLR.mmh
Sequence of mfPRLR.mmh (monomeric macaca fascicularis PRLR) (as listed by the source): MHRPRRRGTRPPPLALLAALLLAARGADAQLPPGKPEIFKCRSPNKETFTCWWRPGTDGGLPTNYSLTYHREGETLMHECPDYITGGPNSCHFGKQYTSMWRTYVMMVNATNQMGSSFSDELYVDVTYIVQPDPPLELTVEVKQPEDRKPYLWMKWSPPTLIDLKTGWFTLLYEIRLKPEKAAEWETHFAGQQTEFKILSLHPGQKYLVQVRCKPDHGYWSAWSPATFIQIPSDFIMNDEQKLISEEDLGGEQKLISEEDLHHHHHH
Outline: as §1

[3] = biological target: T5, hPRLR.mFc (soluble dimeric human PRLR) (Homo sapiens, UniProt P16471); assay: as above; format: binding; settings: antibody-capture format, analyte hPRLR.mFc
T5 construct: dimeric (hPRLR.mFc)
T5 sequence (P16471 with tags, fused parts or gaps): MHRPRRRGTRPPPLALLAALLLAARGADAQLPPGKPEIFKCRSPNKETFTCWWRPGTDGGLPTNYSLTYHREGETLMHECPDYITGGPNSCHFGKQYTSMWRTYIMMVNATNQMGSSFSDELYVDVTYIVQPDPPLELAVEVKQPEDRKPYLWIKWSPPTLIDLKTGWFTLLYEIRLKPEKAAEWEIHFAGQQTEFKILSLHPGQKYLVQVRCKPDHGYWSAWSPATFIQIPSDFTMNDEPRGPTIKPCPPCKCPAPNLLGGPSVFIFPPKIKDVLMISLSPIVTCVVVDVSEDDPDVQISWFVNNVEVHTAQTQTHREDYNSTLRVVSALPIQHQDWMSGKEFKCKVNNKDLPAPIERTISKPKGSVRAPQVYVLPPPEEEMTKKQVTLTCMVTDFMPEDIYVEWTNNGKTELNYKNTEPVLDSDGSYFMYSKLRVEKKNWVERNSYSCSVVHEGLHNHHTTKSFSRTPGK
Outline: as §1

[4] = biological target: T1, HEK293/hPRLR; assay: FACS cell surface binding
Outline: (§2)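 HEK293 lines stably expressing HA-tagged human, cynomolgus or mouse PRLR, native-expressing T47D and parental HEK293 tested by flow cytometry. Cells (1×10^5) stained with primary antibody 30 min on ice, then PE anti-human secondary; MFI expressed as fold over isotype control.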

[5] = tested on: HEK293 (non-expressing parental cells); assay: FACS cell surface binding
Outline: as §2

[6] = biological target: T2, HEK293/mPRLR; assay: FACS cell surface binding
Outline: as §2

[7] = biological target: T3, T47D (native PRLR expressing cell line); assay: FACS cell surface binding
Outline: as §2

| Molecule | Kd ([1]; 25° C.) [nM] | T½ ([1]; 25° C.) [min] | Kd ([1]; 37° C.) [nM] | T½ ([1]; 37° C.) [min] | Kd ([2]; 25° C.) [nM] | T½ ([2]; 25° C.) [min] | Kd ([2]; 37° C.) [nM] | T½ ([2]; 37° C.) [min] | Kd ([3]; 25° C.) [nM] | T½ ([3]; 25° C.) [min] | Kd ([3]; 37° C.) [nM] | T½ ([3]; 37° C.) [min] | FACS Cell Binding (Fold Above Background) [4] [Fold Above Background] | FACS Cell Binding (Fold Above Background) [5] [Fold Above Background] | FACS Cell Binding (Fold Above Background) [6] [Fold Above Background] | FACS Cell Binding (Fold Above Background) [7] [Fold Above Background] |
| --- | --- | --- | --- | --- | --- | --- | --- | --- | --- | --- | --- | --- | --- | --- | --- | --- |
| H1H6953N: human IgG1 Fc form of H1M6953N; anti-PRLR; HCVR/LCVR SEQ ID NOs 274/282 (antibody, V domains shown, human IgG1 Fc) VH: EVQLLESGGGLVQPGGTLRLSCAASGFTFSAYAMSWVRQAPGKGLEWVSSINVRAGDTYYADSVKGRFTISRDNSKNTLFLLMNSLRAEDTAAYYCAKARYSSNWGFDFWGQGTLVTVSS VL: DIVMTQSPDSLTVSLGARTTINCQSSQTILHSSNNHNYLAWYQQKPGLPPKLLIYWSSTRESGVPDRFSGSGSGTDFTLTISSLQAEDVAIYYCQQYSNTPYTFGQGTKLEIN | 0.268 | 54.5 | 1.11 | 9.4 | 0.438 | 36.3 | 2.71 | 4.5 | 0.067 | 242.2 | 0.116 | 68.0 | 37 | 2 | 2 | 40 |
| H1H6804P: anti-PRLR antibody, human IgG1 Fc; HCVR/LCVR SEQ ID NOs 242/250 (antibody, V domains shown, human IgG1 Fc) VH: QVTLKESGPVLVKPTQTLSLTCTVSGFSLSDAGMGVSWIRQPPGKALEWLAHIFSNDGKSYSTSLKSRLTISKDTSKRQVVLTMTNMDPVDTATYYCARIRTGTYSLYLDYWGQGTLVTVSS VL: DIQMTQSPSSLSASVGDRVTITCRASQSINSYLNWYQQKPGKAPKLLLYFASSLQSGVPSRFSGSGSGTDFTLTISSLQPEDFASYYCQESYSTPWTFGQGTKVEIK | 1.4 | 18 | 6.34 | 3 | 1.99 | 18 | 9.35 | 3 | 0.193 | 133 | 0.369 | 56 | 1 | 1 | 1 | 34 |
